Experimental findings from patent publication US20210063414A1, “METHODS FOR PREVENTING AND/OR TREATING BONE LOSS CONDITIONS BY MODULATING IRISIN” (Dana-Farber Cancer Institute, Inc., priority 2018, published 2021) are described below.

In this experiment the target is T1, MLO-Y4 cell surface proteins (Mus musculus, UniProt Q3U2P1).
T1 construct: endogenous in cells; host or cells: MLO-Y4
T1 sequence (Q3U2P1 1-1090): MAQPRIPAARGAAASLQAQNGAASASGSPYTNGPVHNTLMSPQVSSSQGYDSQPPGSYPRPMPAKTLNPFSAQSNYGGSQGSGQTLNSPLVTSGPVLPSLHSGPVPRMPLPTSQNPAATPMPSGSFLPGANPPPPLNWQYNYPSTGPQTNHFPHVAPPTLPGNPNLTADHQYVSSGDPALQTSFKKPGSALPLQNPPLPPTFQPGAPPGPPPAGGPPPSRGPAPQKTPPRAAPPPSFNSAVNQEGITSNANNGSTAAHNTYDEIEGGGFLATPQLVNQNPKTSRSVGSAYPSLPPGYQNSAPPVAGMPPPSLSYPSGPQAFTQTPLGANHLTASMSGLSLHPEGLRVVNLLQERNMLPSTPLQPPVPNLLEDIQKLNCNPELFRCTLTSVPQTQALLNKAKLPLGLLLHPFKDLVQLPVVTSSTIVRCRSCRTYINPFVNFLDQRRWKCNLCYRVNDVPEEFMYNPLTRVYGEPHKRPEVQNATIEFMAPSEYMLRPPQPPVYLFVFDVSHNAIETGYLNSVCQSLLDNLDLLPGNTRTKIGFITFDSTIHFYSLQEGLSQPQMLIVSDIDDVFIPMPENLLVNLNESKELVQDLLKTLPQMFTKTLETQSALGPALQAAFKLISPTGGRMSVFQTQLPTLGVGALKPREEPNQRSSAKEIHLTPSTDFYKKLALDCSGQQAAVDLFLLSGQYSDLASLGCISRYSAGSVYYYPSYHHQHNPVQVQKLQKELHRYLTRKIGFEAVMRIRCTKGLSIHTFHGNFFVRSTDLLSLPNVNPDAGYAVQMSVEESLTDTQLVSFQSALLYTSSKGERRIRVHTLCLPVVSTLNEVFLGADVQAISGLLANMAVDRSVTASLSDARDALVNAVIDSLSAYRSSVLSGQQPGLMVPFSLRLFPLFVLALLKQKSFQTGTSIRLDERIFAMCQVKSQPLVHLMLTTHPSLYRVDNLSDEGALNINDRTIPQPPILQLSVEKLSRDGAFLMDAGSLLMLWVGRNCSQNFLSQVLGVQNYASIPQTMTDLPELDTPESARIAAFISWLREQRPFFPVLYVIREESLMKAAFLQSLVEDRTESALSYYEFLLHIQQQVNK
The experiment is described as follows: Crosslinking/co-immunoprecipitation/mass spectrometry (TMT quantitative proteomics) to identify irisin receptors. In kind it is binding. The settings on record: co-precipitated protein Sec24a (SC24A_MOUSE). The method, boiled down: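 Relative protein abundance came from 6-plex TMT MS3 quantitation on an Orbitrap Fusion Lumos, after in-gel trypsin digestion of Coomassie-stained SDS-PAGE lanes. Input was a Ni-NTA pulldown (250 mM imidazole elution) of lysates from murine MLO-Y4 cells. These cells were treated on ice with His-tagged irisin or adipsin (10 nM, 20 min) in serum-free medium, then crosslinked with 1.5 mM DTSSP for 30 min.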

B1: irisin: secreted cleaved form of FNDC5; recombinant human/mouse irisin with C-terminal his tag produced in HEK293 cells (protein)
chain: DSPSAPVNVTVRHLKANSAVVSWDVLEDEVVIGFAISQQKKDVRMLRFIQEVNTTTRSCALWDLEEDTEYIVHVQAISIQGQSPASEPVLFKTPREAEKMASKNKDEVTMKE
modifications: left off: small tags and cut ends
notes: secreted cleaved form of FNDC5; recombinant human/mouse irisin with C-terminal his tag produced in HEK293 cells
For the molecule B1, the TMT signal-to-noise ratio was 29.3088 and the “irisin/adipsin TMT signal-to-noise ratio” value is listed as 0.246.
